In patent US20250043302A1, “MUTATED HYDROXYPHENYLPYRUVATE DIOXYGENASE POLYPEPTIDE, AND CODING GENE AND USE THEREOF” (BEIJING DABEINONG BIOTECHNOLOGY CO., LTD., priority 2021, published 2025):

What was measured:
Type in all cases: in vivo
[1] = tested on: Arabidopsis thaliana T1 plants; test: Mesotrione tolerance of transgenic Arabidopsis thaliana T1 plants (spray, bleached leaf area grade, damage score); design: Scores: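 damage score 0-100 computed as Σ(N×S)/(T×M)×100 over grades 0-3 with higher meaning more damage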; conditions: Arabidopsis thaliana T1 plants; for Grade 0 (classification and statistics of the grade of pesticide damage; number of plants) / Grade 1 (classification and statistics of the grade of pesticide damage; number of plants) / Grade 2 (classification and statistics of the grade of pesticide damage; number of plants) / Grade 3 (classification and statistics of the grade of pesticide damage; number of plants): 16 plants
Method in brief: (§1)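 Damage was assessed by bleaching grade (0 none; 1 <50%; 2 >50%; 3 100% of leaf area) one week after spraying. Sprays on 18-day-old T1 and wild-type plants used field-rate multiples: topramezone 25–200, isoxaflutole 35–280, mesotrione 52.5–420 g ai/ha.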

[2] = tested on: Arabidopsis thaliana T1 plants; test: Isoxaflutole tolerance of transgenic Arabidopsis thaliana T1 plants (spray, bleached leaf area grade, damage score); design: Scores (pesticide damage): scale not given here; conditions: spray, Arabidopsis thaliana T1 plants; for Classification and statistics of the grade of pesticide damage: Grade 0 (number of plants) / Classification and statistics of the grade of pesticide damage: Grade 1 (number of plants) / Classification and statistics of the grade of pesticide damage: Grade 2 (number of plants) / Classification and statistics of the grade of pesticide damage: Grade 3 (number of plants): 16 plants
Method in brief: as §1

[3] = tested on: Arabidopsis thaliana T1 plants; test: Topramezone tolerance of transgenic Arabidopsis thaliana T1 plants (spray, bleached leaf area grade, damage score); conditions: 7 DAT, Table 4; for Classification and statistics of the grade of pesticide damage: Grade 0 / Classification and statistics of the grade of pesticide damage: Grade 1 / Classification and statistics of the grade of pesticide damage: Grade 2 / Classification and statistics of the grade of pesticide damage: Grade 3: number of plants; for Scores: pesticide damage score 0-100
Method in brief: as §1

[4] = isoxaflutole 35 g ai/ha (0.5x field concentration)
[5] = isoxaflutole 70 g ai/ha (1x field concentration)

B1: GmHPPD-02: nucleotide sequence encoding wild-type Glycine max HPPD; vector DBN11746 (nucleic acid)
DNA: ATGCCAATGTACACACCATCGCTCTCCGCCCCTTCTTCCAACCATATTCAGCCATCCGTGACTCTGCCTCTCTACATCACAACCACCAAGTTGAACCTGAAGCAGCAGCACCATACGACTCCTATGCCTATACCCATGTGCAATGAGATCCAAGCACAGGCTCAGGCACAAGCTCAACCCGGATTCAAACTCGTGGGATTCAAGAACTTCGTCCGTACCAATCCAAAATCTGACCGCTTCCAGGTGAACAGATTCCACCACATAGAGTTTTGGTGTACTGATGCAACGAATGCTTCGAGGAGGTTTTCATGGGGCTTAGGCATGCCGATTGTAGCAAAGTCAGACCTTTCTACAGGGAACCAAATTCATGCAAGCTATCTGCTCCGCTCAGGTGATTTGTCTTTCTTGTTCTCAGCTCCATATTCTCCATCATTATCTGCTGGGTCATCAGCAGCATCTAGTGCGTCGATCCCTAGCTTTGATGCCGCCACCTGCCTCGCCTTCGCCGCCAAACATGGATTTGGTGTTCGCGCCATTGCTCTTGAGGTTGCCGATGCCGAGGCTGCTTTTAGCGCCTCCGTCGCCAAGGGAGCTGAGCCTGCGTCACCTCCTGTTCTTGTTGATGATCGAACTGGTTTTGCTGAAGTGCGTCTTTACGGCGACGTGGTGCTCAGATATGTTAGTTACAAGGATGCTGCTCCTCAAGCGCCGCACGCTGATCCTTCAAGATGGTTTCTTCCGGGGTTTGAGGCCGCTGCTAGTTCATCTTCCTTCCCGGAGTTGGATTACGGCATACGGCGGCTTGACCATGCTGTCGGCAATGTTCCTGAGCTTGCTCCGGCGGTACGGTACTTGAAAGGTTTCTCCGGGTTCCATGAATTTGCAGAGTTCACGGCGGAAGATGTTGGAACAAGTGAAAGCGGATTGAATTCTGTTGTTTTGGCCAACAACAGTGAAACTGTTCTGCTCCCCCTCAATGAACCAGTTTATGGCACAAAGCGCAAGAGCCAGATTGAAACATATCTCGAGCACAATGAAGGCGCCGGCGTCCAGCATCTTGCTTTGGTGACTCATGATATCTTCACAACACTTAGGGAGATGAGGAAGAGGAGTTTCCTCGGCGGGTTTGAATTCATGCCCAGTCCCCCGCCGACCTACTATGCAAATCTGCACAACAGGGCTGCAGATGTGCTGACTGTAGACCAGATCAAGCAATGTGAAGAACTTGGAATTTTAGTGGATAGAGACGACCAAGGTACACTACTTCAAATATTCACCAAACCAGTCGGTGACAGACCAACAATTTTCATCGAGATTATACAAAGAATTGGATGCATGGTCGAGGATGAAGAAGGGAAGGTGTACCAGAAGGGAGCATGTGGTGGTTTTGGGAAAGGAAATTTTTCTGAGCTGTTTAAATCCATCGAGGAATATGAGAAAACCTTAGAAGCTAAAAGAACTGCATGA
modifications: GmHPPD-02 Nucleotide Sequence
notes: vector DBN11746
Question: With B1 as the molecule, how does the Resistance evaluation ([1]; mesotrione 52.5 g ai/ha) read?
Answer: Non-resistant

Question: And the Scores ([1]; mesotrione 52.5 g ai/ha)?
Answer: 100

Question: And the “Grade 0 (classification and statistics of the grade of pesticide damage; number of plants)” value ([1]; mesotrione 52.5 g ai/ha)?
Answer: 0

Question: What about the “Grade 1 (classification and statistics of the grade of pesticide damage; number of plants)” value ([1]; mesotrione 52.5 g ai/ha) of the same molecule?
Answer: 0

Question: What about the “Grade 2 (classification and statistics of the grade of pesticide damage; number of plants)” value ([1]; mesotrione 52.5 g ai/ha) of the same molecule?
Answer: 0

Question: What about the “Grade 3 (classification and statistics of the grade of pesticide damage; number of plants)” value ([1]; mesotrione 52.5 g ai/ha) of the same molecule?
Answer: 16

Question: And the Resistance evaluation ([1]; mesotrione 105 g ai/ha)?
Answer: Non-resistant

Question: And the Scores ([1]; mesotrione 105 g ai/ha)?
Answer: 100

Question: What about the “Grade 0 (classification and statistics of the grade of pesticide damage; number of plants)” value ([1]; mesotrione 105 g ai/ha) of the same molecule?
Answer: 0

Question: And the “Grade 1 (classification and statistics of the grade of pesticide damage; number of plants)” value ([1]; mesotrione 105 g ai/ha)?
Answer: 0

Question: And the “Grade 2 (classification and statistics of the grade of pesticide damage; number of plants)” value ([1]; mesotrione 105 g ai/ha)?
Answer: 0

Question: And the “Grade 3 (classification and statistics of the grade of pesticide damage; number of plants)” value ([1]; mesotrione 105 g ai/ha)?
Answer: 16

Question: And the Resistance evaluation [2, 4]?
Answer: Non-resistant

Question: What about the “Scores (pesticide damage)” value [2, 4] of the same molecule?
Answer: 100

Question: And the “Classification and statistics of the grade of pesticide damage: Grade 0 (number of plants)” value [2, 4]?
Answer: 0

Question: What about the “Classification and statistics of the grade of pesticide damage: Grade 1 (number of plants)” value [2, 4] of the same molecule?
Answer: 0

Question: And the “Classification and statistics of the grade of pesticide damage: Grade 2 (number of plants)” value [2, 4]?
Answer: 0

Question: And the “Classification and statistics of the grade of pesticide damage: Grade 3 (number of plants)” value [2, 4]?
Answer: 16

Question: And the Resistance evaluation [2, 5]?
Answer: Non-resistant

Question: What about the “Scores (pesticide damage)” value [2, 5] of the same molecule?
Answer: 100

Question: What about the “Classification and statistics of the grade of pesticide damage: Grade 0 (number of plants)” value [2, 5] of the same molecule?
Answer: 0

Question: What about the “Classification and statistics of the grade of pesticide damage: Grade 1 (number of plants)” value [2, 5] of the same molecule?
Answer: 0

Question: What about the “Classification and statistics of the grade of pesticide damage: Grade 2 (number of plants)” value [2, 5] of the same molecule?
Answer: 0

Question: What about the “Classification and statistics of the grade of pesticide damage: Grade 3 (number of plants)” value [2, 5] of the same molecule?
Answer: 16

Question: What about the “Classification and statistics of the grade of pesticide damage: Grade 0” value ([3]; topramezone 25 g ai/ha (1×)) of the same molecule?
Answer: 0

Question: What about the “Classification and statistics of the grade of pesticide damage: Grade 1” value ([3]; topramezone 25 g ai/ha (1×)) of the same molecule?
Answer: 0

Question: And the “Classification and statistics of the grade of pesticide damage: Grade 2” value ([3]; topramezone 25 g ai/ha (1×))?
Answer: 0

Question: What about the “Classification and statistics of the grade of pesticide damage: Grade 3” value ([3]; topramezone 25 g ai/ha (1×)) of the same molecule?
Answer: 16

Question: What about the “Classification and statistics of the grade of pesticide damage: Grade 0” value ([3]; topramezone 100 g ai/ha (4×)) of the same molecule?
Answer: 0

Question: And the “Classification and statistics of the grade of pesticide damage: Grade 1” value ([3]; topramezone 100 g ai/ha (4×))?
Answer: 0

Question: And the “Classification and statistics of the grade of pesticide damage: Grade 2” value ([3]; topramezone 100 g ai/ha (4×))?
Answer: 0

Question: And the “Classification and statistics of the grade of pesticide damage: Grade 3” value ([3]; topramezone 100 g ai/ha (4×))?
Answer: 16

Question: And the Scores ([3]; topramezone 25 g ai/ha (1×))?
Answer: 100

Question: What about the Scores ([3]; topramezone 100 g ai/ha (4×)) of the same molecule?
Answer: 100

Question: What about the Resistance evaluation ([3]; topramezone 25 g ai/ha (1×)) of the same molecule?
Answer: non-resistant (non-resistant plants (scores 68-100))

Question: And the Resistance evaluation ([3]; topramezone 100 g ai/ha (4×))?
Answer: non-resistant (non-resistant plants (scores 68-100))
